# Key:
# [1] = tested on: rat myocardial infarction; assay: In vivo ischemia/reperfusion injury, infarct size (TTC/Evans Blue); conditions: 1 μg intramyocardial injection, 30 min ischemia, 24 h reperfusion
# Protocol: FIG. 5A is a series of photographs and a bar graph showing infarct area. Rats were randomly divided into PBS control group and HASF injected group, n=10 for each group. The reperfusion injury model was achieved by 30 min coronary ligation with the immediate injection of vehicle PBScontrol or 1 μg of […] recombinant protein into the myocardium area below ligation suture, followed by loosening of the ligation suture to achieve reperfusion injury. […] The mean of % of infarct area for all sections of each heart was calculated blindly for comparisons using ImageJ computer software. Representative photos from each group are shown.
# Female Sprague-Dawley rats were used for all in vivo experiments. A midsternal thoracotomy was performed to expose the anterior surface of the heart after anesthesia. […]
# For analysis of infarct size, 24 h after reperfusion, the LAD was re-ligated and ˜300 μl of 1% Evans Blue in PBS (pH 7.4) was retrogradely infused into the heart in a 2-3 min period to delineate the non-ischemic area. […] Area at risk (AAR) was calculated as the left ventricular total area excluding Evans Blue dye positive area, and % infarct area was calculated as the % of infarct area/AAR. The mean of % of infarct area for all sections of each heart was calculated blindly for comparisons using ImageJ computer software, with 10 rats in each group.
# [2] = tested on: rat myocardial infarction; assay: In vivo ischemia/reperfusion injury, fibrosis (Masson's trichrome); conditions: 1 μg intramyocardial, 4 weeks after ischemia/reperfusion
# Protocol: FIG. 5C is a series of photographs and a bar graph showing fibrosis. For fibrosis analysis, animals were sacrificed 4 weeks after the initial ischemia/reperfusion injury and serial cryosections of 5 μm thick were made immediately below the ligation area, 10 sections for each heart were analyzed. HASF injected group N=8 rats. PBS injected control group N=6. Brilliant blue color stained collagen area was quantified using ImageJ computer software and the mean of % fibrosis was calculated as collagen positive area/total area. *** P<0.001.
# Female Sprague-Dawley rats were used for all in vivo experiments. A midsternal thoracotomy was performed to expose the anterior surface of the heart after anesthesia. The proximal left […] coronary artery (LAD) was identified and a 6.0 suture (Ethicon) was placed around the artery and surrounding myocardium. […]
# For fibrosis analysis, animals were sacrificed 4 weeks after the initial 30 min ischemia/24 h reperfusion injury and serial cyrosections of 5 μm thick were made immediately below the ligation area, 10 sections for each heart analyzed, and with 8 rats in HASF protein injected group and 6 rats in PBS injected control group. […] Brilliant blue color stained collagen area was quantified using ImageJ computer software and the mean of % fibrosis was calculated as collagen positive area/total area.
# [3] = tested on: adult rat cardiomyocytes; assay: Mitochondrial permeability transition pore (mPTP) channel opening after hypoxia/reoxygenation; format: cell-based; conditions: HASF (100 nM) prior to hypoxia/reoxygenation, vs control untreated samples
# Protocol: FIG. 2D is a series of photomicrographs and a bar graph showing that HASF protects from mPTP channel opening and cell death after ischemia and reperfusion. Adult rat cardiac myocytes were cold-loaded with fluorescent calcein and CoCl2 and subjected to 3-5 h of ischemia followed by 30-60 min reperfusion. Mitochrondria were counterstained with TMRM. Under these conditions increased calcein intensity (green) indicate the entrapped calcein in mitochrondria which is due to reduction of open mPTP channels. Upper panel: Representative images of cells subjected to 3 h ischemia, 60 min reperfusion and cells treated with 100 nM HASF prior to 3 h ischemia, 60 min reperfusion. Lower panel: Quantitative fluorescence analysis of images represented above. The percentage of Calcein intensity was normalized to mitotracker, mitochondrial, intensity and the value was inverted and presented as of mPTP channel opening. Data are presented as means±stdev of values estimated from 8 images per condition.
# FIG. 4D is a bar graph and a photomicrograph showing the effect of recombinant protein, HASF on mPTP channel as imaged by confocal microscopy. […] The presence of PKCepsilon inhibitor peptide caused the opening of the mPTP channel as observed by decreased (quenched) calcein intensity. The bar graph depicts measured fluorescence of calcein versus mitotracker intensity under different conditions. […]
molecule,measurement,setting,value
"HASF: Hypoxia regulated Akt MSC Factor, secreted protein encoded by C3orf58; recombinant human protein without N-signal sequence, SEQ ID NO:1 or 2 (protein, UniProt Q8NDZ4 36-430, looked up, 6xHis tag) Divergent protein kinase …: LASWQRNELTDRRFLQLNKCPACFGTSWCRRFLNGQVVFEAWGRLRLLDFLNVKNVYFAQYGEPREGGRRRVVLKRLGSQRELAQLDQSICKRATGRPRCDLLQAMPRTEFARLNGDVRLLTPEAVEGWSDLVHCPSQRLLDRLVRRYAETKDSGSFLLRNLKDSERMQLLLTLAFNPEPLVLQSFPSDEGWPFAKYLGACGRMVAVNYVGEELWSYFNAPWEKRVDLAWQLMEIAEQLTNNDFEFALYLLDVSFDNFAVGPRDGKVIIVDAENVLVADKRLIRQNKPENWDVWYESKFDDCDKEACLSFSKEILCARATVDHNYYAVCQNLLSRHATWRGTSGGLLHDPPSEIAKDGRLEALLDECANPKKRYGRFQAAKELREYLAQLSNNVR",reduction in the infarct size,[1],~58%
same,reduction of infarct fibrosis compared to control untreated animals,[2],61%
same,scar (myocardial fibrosis),[2],5.7±1.5 % of LV area
same,mPTP channel opening,[3],reduced compared to control untreated samples

# Source: patent US20120172306A1, “Use of HASF as a Protective Agent Against Ischemic Tissue Damage” (Duke University, priority 2009, published 2012)
